B1: SEQ ID No. 2 (protein, listed as Naja atra)
chain: MKTLLLTLLVVTIVCLDLGYTLECHNQQSSQTPTTTGCSGGETNCYKKRWRDHRGYRTERGCGCPSVKNGIEINCCTTDRCNN
B2: SEQ ID No. 1 (protein, listed as Naja atra)
chain: LECHNQQSSQTPTTTGCSGGETNCYKKRWRDHRGYRTERGCGCPSVKNGIEINCCTTDRCNN

Legend:
[1] = test system: adriamycin induced rat nephritis proteinuria; experiment: Adriamycin induced nephritis proteinuria in rats (unilateral nephrectomy + adriamycin); assay type: in vivo; conditions: urine, ELISA, adriamycin 3 + 2 mg/kg, 20 ug/kg by gavage once a day for 8 weeks
Source text: 1. Experimental Animals and Groups
80 male SD rats weighing 160-180 g were randomly divided into 2 groups: 20 in the control group and 60 in the model group. 40 rats in model group, after success in modeling, were randomly divided into cobra neurotoxin polypeptide treatment group and model group.
Each group of the three, namely control group, treatment group and model group were randomly divided into two groups again, with 10 rats in each group to test cobra neurotoxin peptide SEQ ID No. 1 and SEQ ID No. 2, the remaining rats were out of the groups.
Glomerulosclerotic rats were established by unilateral nephrectomy combined with tail vein injection of adriamycin twice every 2 weeks. Model. […] The control group was injected into caudal vein on the 4th and 18th day respectively with normal saline 0.5 ml.
During the 8 weeks of observation, the treatment group was given cobra neurotoxin polypeptide·20 ug/kg by gavage once a day, continuously for 8 weeks; the model group and the control group were perfused with normal saline once a day for 8 weeks.
3. Collection and Detection of Urinary Protein
After the last treatment, the rats were placed in the metabolic cage to collect 10 ml of urine, centrifuged at 3500 r/min for 10 min, the supernatant was extracted into the cryopreservation tube, stored in the refrigerator at −80° C. for standby, and the urinary A1 microglobulin was detected by enzyme-linked immunosorbent assay, β2-microglobulin, microalbumin, transferrin and immunoglobulin G (IgG), operate according to the instructions of ELISA kit.
Anesthetized rats were injected intraperitoneally with 1.5% Pentobarbital Sodium (50 mg/kg). After the corneal reflex disappeared, the abdominal cavity was opened and the abdominal aorta was exposed. The abdominal aorta collected 10 ml of whole blood and placed in a centrifuge tube. After standing for 2 h, centrifuged at 3500 r/min for 10 min. The supernatant was extracted in a cryopreservation tube and stored in a refrigerator at −80° C. for standby. The serum creatinine, urea nitrogen, cholesterol and triglyceride were detected by a full-automatic biochemical analyzer.

[2] = test system: streptozotocin (STZ)-induced rat nephritis proteinuria; experiment: Streptozotocin (STZ)-induced nephritis proteinuria in rats; assay type: in vivo; conditions: urine, ELISA, streptozotocin (STZ) 55 mg/kg, 20 ug/kg by gavage once a day for 8 weeks
[3] = target: T1, nicotinic acetylcholine receptor (nAChR) (Rattus norvegicus, UniProt P25108+P25110); experiment: 125I-αBtx-nAChR binding inhibition (affinity test of snake venom protein peaks); conditions: rat skeletal muscle nAChR extract; αBTX = 100%, BSA = 0%
T1 construct: rat skeletal muscle nAChR extract; from tissue; host or cells: rat skeletal muscle (extract)
T1 sequence (P25108 21-457): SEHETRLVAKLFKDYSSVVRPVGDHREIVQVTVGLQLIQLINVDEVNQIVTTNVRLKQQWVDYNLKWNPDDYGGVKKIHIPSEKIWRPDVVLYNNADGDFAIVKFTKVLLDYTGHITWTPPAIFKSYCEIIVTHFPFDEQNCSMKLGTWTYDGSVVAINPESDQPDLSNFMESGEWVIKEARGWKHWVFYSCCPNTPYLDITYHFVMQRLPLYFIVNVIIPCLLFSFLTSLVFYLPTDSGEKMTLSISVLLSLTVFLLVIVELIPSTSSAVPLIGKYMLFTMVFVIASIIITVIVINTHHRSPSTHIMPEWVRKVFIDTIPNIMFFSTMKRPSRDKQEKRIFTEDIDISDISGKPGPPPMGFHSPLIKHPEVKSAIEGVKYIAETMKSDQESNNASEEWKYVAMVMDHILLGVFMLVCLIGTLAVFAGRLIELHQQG
T1 sequence (P25109 24-501 partner): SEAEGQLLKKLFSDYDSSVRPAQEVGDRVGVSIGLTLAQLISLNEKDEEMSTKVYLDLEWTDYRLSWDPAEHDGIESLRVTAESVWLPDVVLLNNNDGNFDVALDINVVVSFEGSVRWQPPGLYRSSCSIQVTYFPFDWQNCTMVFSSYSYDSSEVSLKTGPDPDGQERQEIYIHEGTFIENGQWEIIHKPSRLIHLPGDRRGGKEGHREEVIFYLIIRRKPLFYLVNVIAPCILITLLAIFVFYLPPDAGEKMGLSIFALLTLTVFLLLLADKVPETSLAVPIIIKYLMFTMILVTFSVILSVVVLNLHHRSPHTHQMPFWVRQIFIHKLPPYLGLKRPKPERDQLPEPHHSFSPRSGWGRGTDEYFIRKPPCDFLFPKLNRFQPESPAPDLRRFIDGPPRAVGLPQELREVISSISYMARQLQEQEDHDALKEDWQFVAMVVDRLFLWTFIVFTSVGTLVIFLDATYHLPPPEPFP
T1 sequence (P25110 22-517): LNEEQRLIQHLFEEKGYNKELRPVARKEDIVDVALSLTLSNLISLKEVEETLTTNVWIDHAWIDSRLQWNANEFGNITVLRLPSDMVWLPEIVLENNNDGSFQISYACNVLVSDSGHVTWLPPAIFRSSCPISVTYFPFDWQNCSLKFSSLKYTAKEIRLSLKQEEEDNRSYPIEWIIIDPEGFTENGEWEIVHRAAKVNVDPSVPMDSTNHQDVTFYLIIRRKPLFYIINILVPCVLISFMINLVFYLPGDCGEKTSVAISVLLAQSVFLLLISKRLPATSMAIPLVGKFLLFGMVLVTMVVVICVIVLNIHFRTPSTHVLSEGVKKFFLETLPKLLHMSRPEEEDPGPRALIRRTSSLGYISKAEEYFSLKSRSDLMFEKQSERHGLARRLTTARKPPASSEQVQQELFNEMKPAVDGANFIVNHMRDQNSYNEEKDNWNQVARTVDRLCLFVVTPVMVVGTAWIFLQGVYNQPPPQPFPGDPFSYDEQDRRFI
Source text: The method was based on the affinity test between 12 protein peaks and nicotinic acetylcholine receptor (nAChR).
The Principle of Affinity Test
Because α-bungarotoxin has high affinity with the nicotinic acetylcholine receptor (nAChR), the cobra neurotoxin can compete with α-bungarotoxin for binding with nicotinic acetylcholine receptor, and only these α-bungarotoxin labeled with the radionuclide 125I and bound with the nicotinic acetylcholine receptor will be precipitated and be counted by the Gamma immunocount instrument whilst unbound α-bungarotoxin will be washed out. Therefore, 12 isolated proteins binding inhibition rate of α-bungarotoxin with nicotinic acetylcholine receptor (nAChR) could be used to measure the affinity between the isolated proteins and nicotinic acetylcholine receptor (nAChR), that's each isolated protein's bioactivity, which could be further determined by the γ counting value per second (Bq) measured by immune counter, and it becomes the index of proteins bioactivity.
The way of implementation include the method of binding inhibition rate of 125I radioactive labeling-α-bungarotoxin with nicotinic acetylcholine receptor (%) which reflects the activity of each protein.
The method for identifying cobra neurotoxin with high affinity with nicotinic acetylcholine receptor (nAChR) includes the following steps: […]

Row | Molecule | IgG ([1]; Table 2) | TRF ([1]; Table 2) | UALB ([1]; Table 2) | a1-MG ([1]; Table 2) | IgG ([2]; Table 4) | TRF ([2]; Table 4) | UALB ([2]; Table 4) | a1-MG ([2]; Table 4) | 125I-αBtx-nAChR binding inhibitory rate [3] | IgG ([1]; Table 1) | TRF ([1]; Table 1) | UALB ([1]; Table 1) | a1-MG ([1]; Table 1) | β2-MG ([1]; Table 1) | IgG ([2]; Table 3) | TRF ([2]; Table 3) | UALB ([2]; Table 3) | a1-MG ([2]; Table 3) | β2-MG ([2]; Table 3)
1 | B1 | 0.31 ± 0.15 µg/mL | 0.11 ± 0.032 µg/mL | 0.82 ± 0.21 µg/mL | 0.74 ± 0.14 µg/mL | 0.31 ± 0.09 µg/mL | 0.18 ± 0.06 µg/mL | 0.89 ± 0.26 µg/mL | 0.96 ± 0.19 µg/mL |  |  |  |  |  |  |  |  |  |  | 
2 | B2 |  |  |  |  |  |  |  |  | about 50% | 0.34 ± 0.08 µg/mL | 0.17 ± 0.08 µg/mL | 0.89 ± 0.11 µg/mL | 0.52 ± 0.8 µg/mL | 29.29 ± 6.93 ng/mL | 0.35 ± 0.11 µg/mL | 0.17 ± 0.05 µg/mL | 1.21 ± 0.14 µg/mL | 1.02 ± 0.21 µg/mL | 38.90 ± 11.82 ng/mL

From patent publication US20230045015A1, “Use of Cobra neurotoxin polypeptide molecule in the treatment of nephropathy proteinuria” (priority 2019, published 2023)
